In patent US10800847:

What was measured:
HLA-B*1511 (B75) (human) [1] = assay: iBead MFI against regular-bead MFI, IVIg diluted 1:8
HLA-B*1503 (B72) (human) [2] = assay: as above
[3] = molecular target: Serum albumin on negative control beads (HSA/BSA) (human or bovine); assay: as above
HLA-B*1401 (B64) (human) [4] = assay: as above
HLA-B*1301 (B13) (human) [5] = assay: as above
HLA-B*1801 (B18) (human) [6] = assay: as above
HLA-B*1402 (B65) (human) [7] = assay: as above
HLA-B*1512 (B76) (human) [8] = assay: as above
HLA-B*1302 (B13) (human) [9] = assay: as above
HLA-B*1501 (B62) (human) = assay: as above
HLA-B*0801 (B8) (human) [10] = assay: as above
HLA-B*1510 (B71) (human) [11] = assay: as above
HLA-B*1513 (B77) (human) [12] = assay: as above
HLA-B*0702 (B7) (human) [13] = assay: as above
HLA-B*1502 (B75) (human) [14] = assay: as above
[15] = molecular target: HLA-A*6901 (A69) single antigen on Luminex beads (human); assay: Luminex single antigen bead assay, iBeads (#6), IVIg 1:8
[16] = molecular target: HLA-A*6802 (A68) single antigen on Luminex beads (human); assay: as above
[17] = molecular target: HLA-A*8001 (A80) single antigen on Luminex beads (human); assay: as above
[18] = molecular target: HLA-A*2902 (A29) single antigen on beads (human); assay: Luminex, iBead vs regular bead, IVIg 1:8
[19] = molecular target: HLA-A*3101 (A31) single antigen on beads (human); assay: Luminex, iBead vs regular bead, IVIg 1:8
[20] = molecular target: HLA-A*3301 (A33) single antigen on beads (human); assay: Luminex, iBead vs regular bead, IVIg 1:8
[21] = molecular target: HLA-A*6601 (A66) single antigen on beads (human); assay: Luminex, iBead vs regular bead, IVIg 1:8
[22] = molecular target: HLA-A*3001 (A30) single antigen on beads (human); assay: Luminex, iBead vs regular bead, IVIg 1:8
[23] = molecular target: HLA-A*3601 (A36) single antigen on beads (human); assay: Luminex, iBead vs regular bead, IVIg 1:8
[24] = molecular target: HLA-A*6801 (A68) single antigen on beads (human); assay: Luminex, iBead vs regular bead, IVIg 1:8
[25] = molecular target: HLA-A*3402 (A34) single antigen on beads (human); assay: Luminex, iBead vs regular bead, IVIg 1:8
HLA-B*1511 (B75) (human) [26] = assay: Luminex regular beads (#7), IVIg diluted 1:8
HLA-B*1503 (B72) (human) [27] = assay: Luminex regular beads (#7), IVIg diluted 1:8
[28] = molecular target: Serum albumin on negative control beads (HSA/BSA) (human or bovine); assay: Luminex regular beads (#7), IVIg diluted 1:8
HLA-B*1401 (B64) (human) [29] = assay: Luminex regular beads (#7), IVIg diluted 1:8
HLA-B*1301 (B13) (human) [30] = assay: Luminex regular beads (#7), IVIg diluted 1:8
HLA-B*1801 (B18) (human) [31] = assay: Luminex regular beads (#7), IVIg diluted 1:8
HLA-B*1402 (B65) (human) [32] = assay: Luminex regular beads (#7), IVIg diluted 1:8
HLA-B*1516 (B63) (human) = assay: Luminex regular beads (#7), IVIg diluted 1:8
HLA-B*1512 (B76) (human) [33] = assay: Luminex regular beads (#7), IVIg diluted 1:8
HLA-B*1302 (B13) (human) [34] = assay: Luminex regular beads (#7), IVIg diluted 1:8
HLA-B*0801 (B8) (human) [35] = assay: Luminex regular beads (#7), IVIg diluted 1:8
HLA-B*1510 (B71) (human) [36] = assay: Luminex regular beads (#7), IVIg diluted 1:8
HLA-B*1513 (B77) (human) [37] = assay: Luminex regular beads (#7), IVIg diluted 1:8
HLA-B*0702 (B7) (human) [38] = assay: Luminex regular beads (#7), IVIg diluted 1:8
HLA-B*1502 (B75) (human) [39] = assay: Luminex regular beads (#7), IVIg diluted 1:8
[40] = molecular target: HLA-A*6901 (A69) single antigen on Luminex beads (human); assay: Luminex single antigen bead assay, iBeads vs regular beads, IVIg 1:8
[41] = molecular target: HLA-A*8001 (A80) single antigen on Luminex beads (human); assay: as above

IVIg Octagam (Octapharma, Lachen, Switzerland) (antibody)
Difference % (iBead vs regular bead) (HLA-B*1511 (B75) (human) [1]): -70%
Difference % (iBead vs regular bead) (HLA-B*1503 (B72) (human) [2]): -100%
Difference % (iBead vs regular bead) [3]: -29%
Difference % (iBead vs regular bead) (HLA-B*1401 (B64) (human) [4]): -96%
Difference % (iBead vs regular bead) (HLA-B*1301 (B13) (human) [5]): -99%
Difference % (iBead vs regular bead) (HLA-B*1801 (B18) (human) [6]): -100%
Difference % (iBead vs regular bead) (HLA-B*1402 (B65) (human) [7]): -100%
Difference % (iBead vs regular bead) (HLA-B*1512 (B76) (human) [8]): 23%
Difference % (iBead vs regular bead) (HLA-B*1302 (B13) (human) [9]): -100%
Difference % (iBead vs regular bead) (HLA-B*1501 (B62) (human)): -100%
Difference % (iBead vs regular bead) (HLA-B*0801 (B8) (human) [10]): -95%
Difference % (iBead vs regular bead) (HLA-B*1510 (B71) (human) [11]): -100%
Difference % (iBead vs regular bead) (HLA-B*1513 (B77) (human) [12]): -89%
Difference % (iBead vs regular bead) (HLA-B*0702 (B7) (human) [13]): -100%
Difference % (iBead vs regular bead) (HLA-B*1502 (B75) (human) [14]): -100%
MFI [15]: 814 MFI
MFI [16]: 489 MFI
MFI [17]: 845 MFI
Difference % (iBead MFI vs regular bead MFI) [18]: 44%
Difference % (iBead MFI vs regular bead MFI) [19]: -100%
Difference % (iBead MFI vs regular bead MFI) [20]: -9%
Difference % (iBead MFI vs regular bead MFI) [21]: -40%
Difference % (iBead MFI vs regular bead MFI) [22]: -45%
Difference % (iBead MFI vs regular bead MFI) [23]: -26%
Difference % (iBead MFI vs regular bead MFI) [24]: 0%
Difference % (iBead MFI vs regular bead MFI) [25]: 0%
MFI (HLA-B*1511 (B75) (human) [26]): 3640 MFI
MFI (HLA-B*1503 (B72) (human) [27]): 1060 MFI
MFI [28]: 2340 MFI
MFI (HLA-B*1401 (B64) (human) [29]): 2400 MFI
MFI (HLA-B*1301 (B13) (human) [30]): 3680 MFI
MFI (HLA-B*1801 (B18) (human) [31]): 246 MFI
MFI (HLA-B*1402 (B65) (human) [32]): 1460 MFI
MFI (HLA-B*1516 (B63) (human)): 3130 MFI
MFI (HLA-B*1512 (B76) (human) [33]): 1130 MFI
MFI (HLA-B*1302 (B13) (human) [34]): 1940 MFI
MFI (HLA-B*0801 (B8) (human) [35]): 2120 MFI
MFI (HLA-B*1510 (B71) (human) [36]): 1290 MFI
MFI (HLA-B*1513 (B77) (human) [37]): 2260 MFI
MFI (HLA-B*0702 (B7) (human) [38]): 714 MFI
MFI (HLA-B*1502 (B75) (human) [39]): 861 MFI
Difference % (iBead MFI against regular bead MFI) [40]: -53%
Difference % (iBead MFI against regular bead MFI) [41]: -63%
